In paper PMC12386283, “Elucidating the Complex Structural and Molecular Mechanisms Driving P-Glycoprotein-Mediated Transport of Cardiac Glycosides” (International Journal of Molecular Sciences, 2025) one finds Km and Vmax data, which are given here for 1 substance.

For data set [1], the system named is C[C@H]1O[C@@H](O[C@H]2[C@@H](O)C[C@H](O[C@H]3[C@@H](O)C[C@H](O[C@H]4CC[C@@]5(C)[C@H](CC[C@@H]6[C@@H]5CC[C@]5(C)[C@@H](C7=CC(=O)OC7)CC[C@]65O)C4)O[C@@H]3C)O[C@@H]2C)C[C@H](O)[C@@H]1O. Kind of data set: purified protein, by the assay type. Particulars: other: 37 °C, 3.2 mM ATP, 50 nM proteoliposome, modified Michaelis-Menten fit, pH 7.4.
Procedure: The Chifflet method is a colorimetric method that measures the amount of free inorganic phosphate (Pi) through the formation of ammonium molybdate and Pi complex, which produces a strong absorbance at 850 nm. The absorbance was measured on a 96-well plate using a CLARIOstar microplate reader (BMG Labtech, Ortenberg, Germany). […] The final concentrations of the proteoliposome and ATP were maintained at 50 nM and 3.2 mM, respectively. Orthovanadate was used as a control and run in parallel to the samples. Finally, the kinetic curves for ATPase activity were fit to a modified Michaelis-Menten equation (Equation (1)) [83]. Igor 6.2 Pro software (Wavemetrics, Tigard, OR, USA) was used for data analysis.(1) V=VmaxS/Km+S+Vbasal where V = Rate of ATP hydrolysis; Vmax = Maximum velocity of ATP hydrolysis; [S] = Substrate concentration; Km = Michaelis–Menten constant; and Vbasal = basal ATPase activity.
For data set [2], the system named is C[C@]12CC[C@H](O)C[C@H]1CC[C@@H]1[C@@H]2C[C@@H](O)[C@]2(C)[C@@H](C3=CC(=O)OC3)CC[C@]12O. In words: purified protein, by the assay type. As to conditions: other: 37 °C, 3.2 mM ATP, 50 nM proteoliposome, modified Michaelis-Menten fit, pH 7.4.

As usually defined, the Km is the concentration of substrate that gives half-maximal velocity. As a reminder, the Vmax is the rate approached at saturating substrate.

Sequence of wild-type mouse Pgp (MDR3) (Mus musculus) (chain, as listed by the source): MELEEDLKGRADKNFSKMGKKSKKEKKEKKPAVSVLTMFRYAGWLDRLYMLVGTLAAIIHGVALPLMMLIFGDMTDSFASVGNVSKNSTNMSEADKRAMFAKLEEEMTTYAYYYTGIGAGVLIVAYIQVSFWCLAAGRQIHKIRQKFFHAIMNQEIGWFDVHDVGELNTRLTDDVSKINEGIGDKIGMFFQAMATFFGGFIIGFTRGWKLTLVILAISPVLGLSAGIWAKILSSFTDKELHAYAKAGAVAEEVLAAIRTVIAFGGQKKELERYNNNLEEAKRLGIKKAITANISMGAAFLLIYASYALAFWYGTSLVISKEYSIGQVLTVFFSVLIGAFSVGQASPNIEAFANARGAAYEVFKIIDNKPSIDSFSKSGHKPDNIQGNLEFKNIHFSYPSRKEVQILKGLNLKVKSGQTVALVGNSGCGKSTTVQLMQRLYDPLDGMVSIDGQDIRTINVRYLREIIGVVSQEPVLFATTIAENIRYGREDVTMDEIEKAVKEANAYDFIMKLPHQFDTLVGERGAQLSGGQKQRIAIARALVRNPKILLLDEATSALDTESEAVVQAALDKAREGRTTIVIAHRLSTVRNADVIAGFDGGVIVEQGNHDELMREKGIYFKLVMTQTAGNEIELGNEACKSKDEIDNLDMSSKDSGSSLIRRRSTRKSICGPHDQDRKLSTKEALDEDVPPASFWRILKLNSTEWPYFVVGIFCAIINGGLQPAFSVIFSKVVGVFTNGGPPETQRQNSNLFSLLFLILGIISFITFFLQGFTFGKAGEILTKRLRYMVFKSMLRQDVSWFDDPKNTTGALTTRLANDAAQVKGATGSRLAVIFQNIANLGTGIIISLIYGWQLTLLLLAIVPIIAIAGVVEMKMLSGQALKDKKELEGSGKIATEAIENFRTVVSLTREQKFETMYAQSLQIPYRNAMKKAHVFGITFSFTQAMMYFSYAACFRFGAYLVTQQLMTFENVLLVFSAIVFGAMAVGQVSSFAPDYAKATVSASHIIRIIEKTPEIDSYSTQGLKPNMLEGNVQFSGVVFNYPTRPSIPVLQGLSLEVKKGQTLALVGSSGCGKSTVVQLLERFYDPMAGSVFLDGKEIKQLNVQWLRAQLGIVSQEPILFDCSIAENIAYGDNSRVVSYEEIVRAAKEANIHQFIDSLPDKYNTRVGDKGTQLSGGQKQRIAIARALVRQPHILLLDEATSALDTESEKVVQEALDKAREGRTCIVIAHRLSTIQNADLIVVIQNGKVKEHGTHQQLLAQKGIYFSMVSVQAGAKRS

Take “wild-type mouse Pgp (MDR3) (Mus musculus)”: the Michaelis constant (Km) in data set [1] came out at 99.19 ± 13.3 µM. In addition, in data set [2], the Km amounted to 426.82 ± 173.26 µM and the maximal velocity (Vmax) worked out at 541.92 ± 111 nmol/min/mg.
